Experimental data as given in the Human Domainome abundance scans (Beltran et al. 2025).
± gives the uncertainty stated by the source.

B1: Transcriptional regulator ERG, residues 117 to 197; numbered along this chain, P11308 (parent)
chain: NMTTNERRVIVPADPTLWSTDHVRQWLEWAVKEYGLPDVNILLFQNIDGKELCKMTKDDFQRLTPSYNADILLSHLHYLRE

Variants of: B1
Assay: abundance fitness (aPCA) (normalised: wild type 0, dead -1); higher = more abundant; growth selection in yeast, the domain comes from the species named
Conditions: Homo sapiens

Row | Variant | abundance fitness
1 | I10V | 0.03 ± 0.04
2 | Y78M | 0.163 ± 0.078
3 | S66C | -0.005 ± 0.14
4 | Y34D | -0.326 ± 0.1
5 | I10R | 0.093 ± 0.035
6 | N46M | -0.255 ± 0.066
7 | K54I | -0.377 ± 0.17
8 | L76A | -0.342 ± 0.14
9 | T16M | 0.02 ± 0.053
10 | G35R | -0.027 ± 0.035
11 | N1R | -0.054 ± 0.072
12 | L52H | -0.689 ± 0.11
13 | K32W | -0.158 ± 0.049
14 | Y67E | 0.037 ± 0.072
15 | I47L | -0.046 ± 0.045
16 | L76M | -0.262 ± 0.13
17 | Y67T | 0.113 ± 0.072
18 | L17V | 0.017 ± 0.043
19 | H22I | -0.488 ± 0.13
20 | L72K | -0.952 ± 0.27
21 | W26F | -0.068 ± 0.08
22 | G35S | 0.012 ± 0.039
23 | L76Y | -0.663 ± 0.38
24 | R8W | -0.881 ± 0.19

Row | Variant | abundance fitness
25 | D70A | -0.169 ± 0.058
26 | T16K | -0.05 ± 0.059
27 | W18Y | -0.738 ± 0.16
28 | R62I | 0.03 ± 0.077
29 | T56C | -0.024 ± 0.17
30 | M2H | -0.046 ± 0.095
31 | E51S | 0 ± 0.038
32 | E81A | -0.03 ± 0.089
33 | N40T | -0.213 ± 0.058
34 | P12K | -0.215 ± 0.058
35 | N1K | -0.114 ± 0.09
36 | D38R | -0.146 ± 0.036
37 | I47Q | -1.08 ± 0.25
38 | K54F | -0.227 ± 0.14
39 | I41Q | -0.112 ± 0.054
40 | L36D | -0.426 ± 0.099
41 | D21K | -0.138 ± 0.054
42 | N1Y | 0.029 ± 0.069
43 | K50E | 0.035 ± 0.048
44 | Q25I | -0.001 ± 0.082
45 | V31C | -0.111 ± 0.085
46 | L36M | -0.038 ± 0.053
47 | L63E | -0.691 ± 0.092
48 | T64W | -0.091 ± 0.052

Row | Variant | abundance fitness
49 | N68D | 0.021 ± 0.092
50 | R7E | 0.06 ± 0.045
51 | D38F | -0.541 ± 0.17
52 | W29E | 0.127 ± 0.045
53 | Q25R | -0.003 ± 0.034
54 | T64F | 0.025 ± 0.15
55 | D48M | -0.412 ± 0.079
56 | N5C | -0.01 ± 0.066
57 | V11S | 0.104 ± 0.044
58 | L63P | -0.567 ± 0.23
59 | W29Y | 0.006 ± 0.084
60 | E6T | -0.017 ± 0.055
61 | K32F | -0.166 ± 0.095
62 | N40F | -0.419 ± 0.1
63 | P37T | 0.072 ± 0.039
64 | T16P | -0.428 ± 0.11
65 | N68E | 0.085 ± 0.049
66 | L76G | -0.802 ± 0.12
67 | Q61S | -0.032 ± 0.05
68 | A30S | -0.103 ± 0.05
69 | M2E | -0.213 ± 0.058
70 | W26H | -0.96 ± 0.36
71 | T16G | -0.026 ± 0.033
72 | L43K | 0.071 ± 0.05

Row | Variant | abundance fitness
73 | S74M | -0.124 ± 0.095
74 | W29L | -0.168 ± 0.054
75 | H22C | -0.229 ± 0.068
76 | R7D | 0.037 ± 0.057
77 | I41Y | -0.057 ± 0.073
78 | R7V | -0.045 ± 0.038
79 | S74Q | -0.073 ± 0.1
80 | T56I | -0.236 ± 0.17
81 | V11L | 0.067 ± 0.037
82 | R62N | 0.015 ± 0.09
83 | T4Q | -0.126 ± 0.054
84 | A69M | -0.186 ± 0.11
85 | D58K | -0.063 ± 0.12
86 | Y67S | 0.075 ± 0.07
87 | S66R | -0.057 ± 0.054
88 | E51P | -0.897 ± 0.14
89 | E33M | -0.105 ± 0.063
90 | K50A | 0.044 ± 0.037
91 | K50Q | -0.022 ± 0.054
92 | P37R | 0.014 ± 0.039
93 | R7H | -0.115 ± 0.078
94 | H77A | 0.034 ± 0.065
95 | M55T | -0.703 ± 0.18
96 | F60Q | -1.05 ± 0.35

Row | Variant | abundance fitness
97 | D70W | -0.42 ± 0.076
98 | A69R | -0.748 ± 0.12
99 | W29F | -0.098 ± 0.11
100 | N5S | -0.119 ± 0.046
101 | S19T | -0.073 ± 0.055
102 | V9I | -0.034 ± 0.044
103 | D38Y | -0.293 ± 0.088
104 | T20R | -0.05 ± 0.035
105 | L63C | -0.215 ± 0.079
106 | L17I | -0.002 ± 0.12
107 | D21Y | -0.186 ± 0.071
108 | D58P | 0.103 ± 0.1
109 | C53T | -0.06 ± 0.046
110 | D59C | 0.027 ± 0.13
111 | N1D | -0.071 ± 0.081
112 | I71A | 0.036 ± 0.042
113 | E51M | -0.054 ± 0.056
114 | E51G | 0.022 ± 0.031
115 | Y34W | -0.105 ± 0.05
116 | Q25C | -0.015 ± 0.073
117 | L52G | -0.694 ± 0.17
118 | K32E | 0.053 ± 0.045
119 | H75M | -1.02 ± 0.34
120 | L43R | -0.029 ± 0.032

Row | Variant | abundance fitness
121 | L17Y | -0.097 ± 0.073
122 | L79Y | -0.454 ± 0.18
123 | V31T | 0.001 ± 0.064
124 | E6S | -0.107 ± 0.047
125 | N46Q | -0.144 ± 0.078
126 | A30C | -0.117 ± 0.062
127 | P37S | 0.08 ± 0.039
128 | W18D | -0.923 ± 0.25
129 | L43H | 0.027 ± 0.079
130 | T4H | -0.151 ± 0.075
131 | E28T | -0.031 ± 0.061
132 | I47S | -0.751 ± 0.11
133 | H22P | -1.06 ± 0.18
134 | M55E | -1.09 ± 0.24
135 | T20H | -0.012 ± 0.088
136 | V39C | 0.005 ± 0.053
137 | I47H | -0.251 ± 0.13
138 | K50H | -0.098 ± 0.084
139 | N1T | 0.002 ± 0.072
140 | I47D | -0.789 ± 0.21
141 | E33G | -0.429 ± 0.045
142 | L36C | 0.014 ± 0.065
143 | L63W | -0.179 ± 0.05
144 | Y34T | -0.449 ± 0.084

Row | Variant | abundance fitness
145 | K32T | -0.044 ± 0.055
146 | D48Q | -0.227 ± 0.059
147 | P37Y | -0.018 ± 0.053
148 | R80A | 0.021 ± 0.061
149 | D59Y | -0.666 ± 0.33
150 | R62S | -0.095 ± 0.062
151 | Q61H | 0.173 ± 0.11
152 | K57V | -0.127 ± 0.055
153 | D38H | -0.049 ± 0.092
154 | E51K | -0.025 ± 0.061
155 | Y78P | -0.033 ± 0.08
156 | V39R | -0.278 ± 0.036
157 | N5G | -0.01 ± 0.034
158 | L52R | -0.77 ± 0.11
159 | E81Q | 0.016 ± 0.14
160 | R24L | -0.017 ± 0.044
161 | L73V | -0.028 ± 0.057
162 | K54S | 0.092 ± 0.055
163 | V9P | 0.292 ± 0.051
164 | A13K | -0.05 ± 0.062
165 | P12F | -0.486 ± 0.099
166 | P65F | 0.342 ± 0.29
167 | H75T | -0.646 ± 0.23
